Results on 2 molecules are retold here after patent US5175251A, “Antimetastatic peptides with laminin activity” (SRI International, priority 1991, dated 1992).

One data set in a line: Isoelectric point. It counts as physicochemical. An excerpt: The anion exchange resin is usually employed in the form of a packed column. The column is equilibrated using conventional techniques and the solution of the cleaved reaction products is loaded onto the column. […] The peptide is eluted by increasing the ionic strength of the buffered solution, typically from 0 to 0.75M NaCl. The column can be regenerated by washing with solutions of NaOH and nonionic detergents to remove any residual contaminating protein or solubilizing agents and equilibrating the column.
For example, when the laminin B1 peptide is fused to CTAP-III(Leu21), an anion exchange column (for example, either Mono-Q or Q Sepharose from Pharmacia) may be employed to separate the two proteins on the basis of differences in their isoelectric points (LamB1 -40(Ser27) peptide=3.65, CTAP-III=7.8). […] Elution of the peptide may be performed with a linear gradient (0 to 0.5M) of NaCl. Pooled fractions of LamB1 -40, typically greater than 90% pure, may optionally be subjected to further purification using hydrophobic interaction chromatography (HIC), gel filtration chromatography, reverse-phase liquid chromatography or combinations thereof.

Data set [1] deals with B16/F10 cells (murine melanoma). The data set can be described thus: Cell adhesion assay: tumor cells bound to peptide-coated wells. It counts as cell-based. The conditions noted are these: summary of Table 1. How it is done:
The cell-adhesion assay measures the binding of tumor cells to laminin immobilized on the surface of a culture dish. The peptides of the invention can be substituted for the immobilized laminin to measure the binding constants of the peptides and compare binding constants of the peptides of the invention with laminin or other known laminin peptides. In this assay, solubilized peptides are incubated on tissue culture well plates and nonspecific cell binding is blocked by the addition of bovine serum albumin (BSA). Tumor cells are added to the wells and nonadherent cells are removed by washing with phosphate-buffered saline (PBS). Attached cells may be trypsinized and counted electronically or the cells may be fixed, stained with chemical agents, such as crystal violet solution and the optical density of the solutions determined using a microtiter plate reader in the range from 590-405 nm. Extrapolation of OD to the number of cells bound may be obtained by comparison of readings to a standard curve obtained by incubating various numbers of cells in tissue culture wells for a time sufficient to allow firm attachment but not permit significant cell division (about 5 h), and washing and staining as above. […]

Turning to “NH2 -Pro-Cys-Pro-Asp-Gly-Pro-Asp-Ser-Gly-Arg-Gln-Phe-Ala-Arg-Ser-Cys-Tyr -Gln-Asp-Pro-Val-Thr-Leu-Gln-Leu-Ala-Ser-Val-Cys-Asp-Pro-Gly-Tyr-Ile-Gly-Ser-Arg-Cys-Asp-Asp-OH (H-PCPDGPDSGRQFARSCYQDPVTLQLASVCDPGYIGSRCDD-OH; cysteine pairing not given here) [LamB1 -40(Ser27), recombinant 40 amino acid laminin B1 peptide, Cys at position 923 replaced with serine]”, the “isoelectric point (pI)” value in “Isoelectric point” stood at 3.65. Further, the “Binding of metastatic tumor cells compared with YIGSR or CDPGYIGSR” value in data set [1] was “binds metastatic tumor cells more effectively”.

B1: CTAP-III: naturally occurring polypeptide isolated from human platelets that is capable of activating connective tissue cells (protein, UniProt P02775 44-128, looked up)
Connective tissue-activating …: NLAKGKEESLDSDLYAELRCMCIKTTSGIHPKNIQSLEVIGKGTHCNQVEVIATLKDGRKICLDPDAPRIKKIVQKKLAGDESAD
modifications: Connective tissue-activating peptide III
Consider B1, for which the “isoelectric point (pI)” value in “Isoelectric point” was 7.8.
